B1: soluble hACE2 N53S/N90S/N322S (receptor)
chain: STIEEQAKTFLDKFNHEAEDLFYQSSLASWNYNTSITEENVQNMNNAGDKWSAFLKEQSTLAQMYPLQEIQSLTVKLQLQALQQNGSSVLSEDKSKRLNTILNTMSTIYSTGKVCNPDNPQECLLLEPGLNEIMANSLDYNERLWAWESWRSEVGKQLRPLYEEYVVLKNEMARANHYEDYGDYWRGDYEVNGVDGYDYSRGQLIEDVEHTFEEIKPLYEHLHAYVRAKLMNAYPSYISPIGCLPAHLLGDMWGRFWTNLYSLTVPFGQKPNIDVTDAMVDQAWDAQRIFKEAEKFFVSVGLPSMTQGFWENSMLTDPGNVQKAVCHPTAWDLGKGDFRILMCTKVTMDDFLTAHHEMGHIQYDMAYAAQPFLLRNGANEGFHEAVGEIMSLSAATPKHLKSIGLLSPDFQEDNETEINFLLKQALTIVGTLPFTYMLEKWRWMVFKGEIPKDQWMKKWWEMKREIVGVVEPVPHDETYCDPASLFHVSNDYSFIRYYTRTLYQFQFQEALCQAAKHEGPLHKCDISNSTEAGQKLFNMLRLGKSEPWTLALENVVGAKNMNVRPLLNYFEPLFTWLKDQNKNSFVGWSTDWSPYADQSIK
notes: also called triple glycan deletant
B2: soluble hACE2 N53A/N90A/N322A (receptor)
chain: B1 chain with S35A, S72A, S304A
notes: also called N53A/N90A/N322A triple deletant
B3: soluble hACE2 N53A/N322A (receptor)
chain: B1 chain with S35A, S72N, S304A
notes: also called double glycan deletant
B4: soluble hACE2 N90S/N322S (receptor)
chain: B1 chain with S35N
notes: as for B3
B5: soluble hACE2 N53S/N322S (receptor)
chain: B1 chain with S72N
notes: as for B3
B6: soluble hACE2 N90A/N322A (receptor)
chain: B1 chain with S35N, S72A, S304A
notes: also called N90A/N322A double deletant
B7: soluble hACE2 N53A/N90A (receptor)
chain: B1 chain with S35A, S72A, S304N
notes: as for B3
B8: soluble hACE2 N53S/N90S (receptor)
chain: B1 chain with S304N
notes: as for B3
B9: shACE2 N90A/N322A double glycan deletant (domain or fragment)
chain: B1 chain with S35N, S72A, S304A
notes: as for B6
B10: shACE2 N53A/N90A/N322A triple glycan deletant (domain or fragment)
chain: B1 chain with S35A, S72A, S304A
notes: also called N53A/N90A/N322A triple deletant; N53A/N90A/N322 triple deletant

Where a chain is given by its changes, count along the chain named. Names and notes keep the numbering of the source. Values joined by “and” are separate entries in the source; they are usually repeats but may differ in a detail not shown here. Identical values can stand only once.

In the first test the target is T1, CoV2 Omicron S-RBD with human Fc (SARS-CoV-2, UniProt P0DTC2).
T1 construct: also called Omicron RBD; RBD-Fc (Omicron)
The test can be described thus: BLI. As to conditions: both partners purified.
Consider B1, for which the equilibrium dissociation constant (Kd) is 64.7 nM and 72.7 nM and 68.7 nM.
Take B2: the Kd was 67.1 nM and 75.5 nM and 71.3 nM.
Take B3: the equilibrium dissociation constant (Kd) is 164 nM and 139 nM and 151 nM.
Consider B4, for which the Kd is 38.2 nM and 38.5 nM and 38.4 nM.
For the molecule B5, the equilibrium dissociation constant (Kd) was 163 nM and 162 nM (2×).
Still for that read-out and setting: in the case of B6 it was 36.5 nM and 36 nM and 36.3 nM; in that of B7, 83.2 nM and 116 nM and 99.5 nM; in that of B8, 101 nM and 123 nM and 112 nM.

For the next test, the target named is T2, CoV2 Parental S-RBD fused with human Fc (SARS-CoV-2, UniProt P0DTC2).
T2 construct: also called Parental RBD; RBD-Fc (Parental)
Put plainly: BLI. Conditions: both partners purified.
In the case of B1, the dissociation constant (Kd) is 178 nM and 219 nM and 198 nM.
As for B2, the Kd was 262 nM and 246 nM.
With B3, the Kd is 411 nM and 395 nM and 403 nM.
The same measure, in the same setting: in the case of B4 it was 123 nM and 126 nM and 125 nM; in that of B5, 438 nM and 457 nM and 448 nM; in that of B6, 127 nM and 103 nM.
For the molecule B7, the Kd is 220 nM and 246 nM and 233 nM.
Still for that read-out and setting: in the case of B8 it was 223 nM and 226 nM and 224 nM.

The target of another test is T3, CoV2 Parental S-RBD fused with human Fc (SARS-CoV-2, UniProt P0DTC2).
T3 construct: also called Parental RBD; RBD-Fc
Put plainly: BLI. As to conditions: both partners purified.
On to B9, for which the Kd came to 115 nM.
For the molecule B10, the Kd was found to be 254 nM.

One may read the Kd as the constant that tells how readily two partners part at equilibrium.

The record behind these values is paper PMC9637154 (Communications Biology, 2022).
